Laboratory results taken from US7255985B2, “Fluorine NMR spectroscopy for biochemical screening” (Pfizer Italia S.r.l., priority 2003, dated 2007).
Non-standard residues stand in square brackets, D forms with d. No end group written: not given here. *: point of attachment. Phe(3-CF3) = N[C@@H](Cc1cccc(C(F)(F)F)c1)C(=O)O; Tfa = O=C(C(F)(F)F)*

Assays:
Assay type in all cases: biochemical
[1] = biological target: T1, protein Ser/Thr kinase AKT1 (Homo sapiens, UniProt P31749); test: 19F NMR assay of phosphorylation of CF3-labeled peptide by AKT1
T1 construct: baculovirus coding for the full length protein fused to GST at the N-terminus; GST (N, cleaved yes); made in house; host or cells: Sf21 insect cells (baculovirus), treated with okadaic acid before harvest
T1 sequence (P31749 whole entry, the tested form may be a part): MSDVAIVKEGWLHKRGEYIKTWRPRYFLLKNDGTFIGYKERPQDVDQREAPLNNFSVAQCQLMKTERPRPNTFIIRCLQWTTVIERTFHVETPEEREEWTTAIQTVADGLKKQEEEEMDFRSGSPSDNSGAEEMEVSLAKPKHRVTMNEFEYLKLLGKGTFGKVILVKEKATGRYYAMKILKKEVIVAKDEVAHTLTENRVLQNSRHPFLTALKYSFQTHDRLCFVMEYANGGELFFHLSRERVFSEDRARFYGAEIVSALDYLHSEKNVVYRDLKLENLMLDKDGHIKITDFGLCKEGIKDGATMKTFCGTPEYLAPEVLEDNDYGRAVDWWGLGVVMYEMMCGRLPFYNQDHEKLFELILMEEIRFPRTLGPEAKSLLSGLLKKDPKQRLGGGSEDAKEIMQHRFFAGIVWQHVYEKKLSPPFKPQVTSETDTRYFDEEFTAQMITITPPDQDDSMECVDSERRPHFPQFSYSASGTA
Procedure: D2O was added to the solutions (8% final concentration) for the lock signal.

[2] = biological target: T2, trypsin from bovine pancreas (Bos taurus, UniProt P00760); test: 19F NMR assay of cleavage of CF3-labeled peptide by trypsin; conditions: 15 nM trypsin
T2 construct: purchased Roche Molecular Biochemical 1418025; host or cells: bovine pancreas
T2 sequence (P00760 24-246): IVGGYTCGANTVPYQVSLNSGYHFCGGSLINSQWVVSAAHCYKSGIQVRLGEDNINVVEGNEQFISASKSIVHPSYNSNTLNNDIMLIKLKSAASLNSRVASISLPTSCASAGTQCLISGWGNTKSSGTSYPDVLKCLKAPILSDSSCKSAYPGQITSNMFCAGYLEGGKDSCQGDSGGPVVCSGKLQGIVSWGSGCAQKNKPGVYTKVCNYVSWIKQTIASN
Procedure: FIG. 4 provides the screening of proteases, where the substrate is the peptide of Seq ID NO:2 and the protein is trypsin from bovine pancreas. ^19F NMR spectra for the peptide in the absence (a) and in the presence (b–e) of trypsin. The reaction was run at 22° C. and quenched after 30 minutes with the addition of 0.5 mM phenylmethylsulfonyl fluoride (PMSF). The reaction was performed in the absence of compound (b), in the presence of a five compound mixture (2-amino-6 methylquinazolin-4 ol, ethyl 2-quinoxalinecarboxylate, 5-methyl-benzimidazole, methyl isoquinoline-3-carboxylate, and leupeptin) (c), in the presence of the same mixture without leupeptin (d), and in the presence of only leupeptin (e). The protein, peptide, and compound concentrations were 15 nM, 30 μM, and 20 μM, respectively. A total of 128 scans with 2.8 s repetition time were recorded for each spectrum (6 minute measuring time). Pep and C-pep are the substrate and the product respectively.
The method of the present invention can also be applied to many different types and subtypes of enzymes (e.g. proteases, phosphatases, ligases, etc.). […]
All NMR spectra were recorded at 20° C. with a 600 NMR spectrometer operating at a ^19F Larmor frequency of 564 MHZ. […]

[3] = biological target: T3, p21-activated kinase PAK4 (Homo sapiens, UniProt O96013); test: 19F NMR assay of CF3-labeled peptide with PAK4 (protein function)
T3 construct: GST (cleaved yes); made in house; host or cells: Escherichia coli
T3 sequence (O96013 whole entry): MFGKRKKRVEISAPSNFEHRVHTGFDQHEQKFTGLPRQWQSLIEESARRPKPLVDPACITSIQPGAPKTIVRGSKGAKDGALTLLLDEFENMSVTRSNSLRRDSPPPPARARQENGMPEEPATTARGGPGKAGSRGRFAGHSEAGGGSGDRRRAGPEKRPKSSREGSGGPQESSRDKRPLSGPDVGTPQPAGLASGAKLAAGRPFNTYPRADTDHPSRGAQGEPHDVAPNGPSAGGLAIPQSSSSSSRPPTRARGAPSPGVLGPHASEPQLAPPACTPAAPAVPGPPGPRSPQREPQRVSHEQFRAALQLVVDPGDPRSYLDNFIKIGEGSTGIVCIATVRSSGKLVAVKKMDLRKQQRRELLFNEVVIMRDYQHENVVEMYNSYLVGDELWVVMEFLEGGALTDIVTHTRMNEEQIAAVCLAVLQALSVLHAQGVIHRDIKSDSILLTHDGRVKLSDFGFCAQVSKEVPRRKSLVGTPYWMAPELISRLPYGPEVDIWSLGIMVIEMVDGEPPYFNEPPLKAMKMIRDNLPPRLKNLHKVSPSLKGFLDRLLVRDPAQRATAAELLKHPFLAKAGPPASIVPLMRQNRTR
Procedure: FIG. 5 provides the 19F spectra of the peptide of Seq ID NO:2 in the presence of three different proteins, 25 nM AKT1 (FIG. 5A top), 15 nM trypsin (FIG. 5B middle) and 150 nM PAK4 (FIG. 5C bottom). […] The chemical shift of the cleaved peptide is quite different when compared to the chemical shift of the phosphorylated peptide.
In another embodiment of the present invention, three different proteins, AKT1, Trypsin, and p-21 activated protein (PAK4) were incubated with the CF3-labeled peptide of Seq ID NO:2. […] A higher concentration of the protein with unknown function and a longer incubation period may be required because the substrate may not be optimal for the protein with unknown function. The speed of the enzymatic reaction of PAK4 is only 1/22 of the speed of AKT1, therefore, the period of time for the reaction in the presence of PAK4 was longer than the period of time for the reaction in the presence of AKT1. The method of the present invention is also applicable to activated enzymes.
The serine/threonine p21-activated kinase PAK4 was expressed as a GST fusion protein in Escherichia coli and purified to homogeneity after removal of the GST tag.
All NMR spectra were recorded at 20° C. with a 600 NMR spectrometer operating at a ^19F Larmor frequency of 564 MHZ. A 5 mm probe tunable to either 19F or ^1H frequency was used. […]

## ARKRERAF(3-CF3)SFGHHA (ARKRERA[Phe(3-CF3)]SFGHHA) [peptide of Seq ID NO:2, CF3-labeled peptide substrate for trypsin, AKT1 and PAK4]
[1]; 25 nM AKT1
  substrate quality for AKT1: good substrate
[2]
  substrate quality for trypsin: good substrate
[3]; 150 nM PAK4
  19F signal after reaction with PAK4: appearance of a signal at the chemical shift of the phosphorylated peptide
[3]; ratio to speed of AKT1
  speed of the enzymatic reaction of PAK4 relative to AKT1: 1/22

## CN[C@@H]1C[C@H]2O[C@@](C)([C@@H]1OC)n1c3ccccc3c3c4c(c5c6ccccc6n2c5c31)C(=O)NC4 [staurosporine]
[1]; 10 μM Staurosporine, 50 nM protein, 30 μM peptide, 131 μM ATP
  formation of phosphorylated peptide in the presence of inhibitor: did not result in any formation of phosphorylated peptide

## CC(=O)N[C@@H](CC(C)C)C(=O)N[C@@H](CC(C)C)C(=O)N[C@H](C=O)CCCNC(=N)N [leupeptin, reference compound]
[2]; 20 μM compound, 30 μM peptide, 22° C., quenched after 30 minutes
  inhibition of peptide cleavage by trypsin (cleaved peptide signal): missing cleaved peptide signal

## O=S(=O)(NCCNC/C=C/c1ccc(Br)cc1)c1cccc2cnccc12 [H89]
[1]; reaction in the presence of only H89 (deconvolution of five molecule mixture)
  inhibition of peptide phosphorylation: inhibitory effect over peptide phosphorylation

## Nc1ncnc2c1ncn2[C@@H]1O[C@H](COP(=O)(O)OP(=O)(O)OP(=O)(O)O)[C@@H](O)[C@H]1O [ATP]
[1]; 40 nM protein, 30 μM substrate peptide, 22° C., quenched after 60 minutes, read-out: KM / binding constant for ATP
  Km: 89 µM

## CF3—CO-ARKRERAYSFGHHA (Tfa-ARKRERAYSFGHHA) [CF3-labeled peptide of Seq ID NO:1, AKTide, 14 aminoacid peptide labeled with CF3 by N-terminal capping with trifluoroacetic anhydride]
[1]; 50 nM protein, 30 μM peptide, 131 μM ATP, no inhibitor
  time after which the enzymatic reaction is complete: 149 min
